From paper PMC12098869, “An mRNA-display derived cyclic peptide scaffold reveals the substrate binding interactions of an N-terminal cysteine oxidase” (Nature Communications, 2025) come the findings set out here.

A word on the Kd: it is a measure of binding affinity in units of concentration.

Positions count from the first letter of the chain named. Several values for one entry are separate records, joined by “and”; a condition that tells them apart may be missing. Equal values may be shown once.

Holding throughout (details): both partners purified
The target of assay [1] is T1, ADO-Y212A, N-terminally His-tagged and biotinylated (human, UniProt Q96SZ5 1-270, Y212A, biotin (biotinylated during expression)).
T1 construct: 2-aminoethanethiol dioxygenase (ADO), human, UniProt Q96SZ5, full length, site-directed mutant; source: E. coli Rosetta2(DE3), purified (Ni-NTA, SEC); not shown: biotinylation tag (from the vector pQE80L-Navi), N-terminal, kept
T1 sequence (looked up): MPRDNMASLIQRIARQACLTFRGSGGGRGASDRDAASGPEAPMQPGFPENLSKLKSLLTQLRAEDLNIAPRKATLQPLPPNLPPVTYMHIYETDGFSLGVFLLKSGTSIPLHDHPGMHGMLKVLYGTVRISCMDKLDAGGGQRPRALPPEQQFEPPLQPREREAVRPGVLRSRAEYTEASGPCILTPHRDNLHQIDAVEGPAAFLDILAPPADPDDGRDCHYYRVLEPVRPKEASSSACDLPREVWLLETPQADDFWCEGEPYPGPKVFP
The experiment in a line: SPR; biotinylated ADO or ADO mutant immobilised on a Biotin CAP chip (~2500-3000 RU), substrate peptide injected; Biacore T200, 4 °C; 20 mM HEPES pH 7.5, 500 mM NaCl, 10 mM DTT, 0.1% tween-20; 50 µL/minute; multi-cycle or single-cycle mode not given; each cell is one of three independent measurements.

Assay [2] concerns the target T2, ADO-F101A, N-terminally His-tagged and biotinylated (human, UniProt Q96SZ5 1-270, F101A, biotin (biotinylated during expression)).
T2 construct: 2-aminoethanethiol dioxygenase (ADO), human, UniProt Q96SZ5, full length, site-directed mutant; source: E. coli Rosetta2(DE3), purified (Ni-NTA, SEC); not shown: biotinylation tag (from the vector pQE80L-Navi), N-terminal, kept
T2 sequence (looked up): T1 sequence (looked up) with F101A, A212Y
The assay is described as above.

The target of assay [3] is T3, ADO-D206E, N-terminally His-tagged and biotinylated (human, UniProt Q96SZ5 1-270, D206E, biotin (biotinylated during expression)).
T3 construct: 2-aminoethanethiol dioxygenase (ADO), human, UniProt Q96SZ5, full length, site-directed mutant; source: E. coli Rosetta2(DE3), purified (Ni-NTA, SEC); not shown: biotinylation tag (from the vector pQE80L-Navi), N-terminal, kept
T3 sequence (looked up): T1 sequence (looked up) with D206E, A212Y
Described as above.

For assay [4], the target named is T4, ADO-D206E, biotinylated (pQE80L-Navi-ADO) (human, UniProt Q96SZ5 1-270, D206E, biotin on the Avi tag).
T4 construct: Tag as in Dm1; source: E. coli Rosetta2(DE3), purified (Ni-NTA, SEC); not shown: Avi tag, N-terminal, kept; His6, N-terminal, kept
T4 sequence (looked up): T1 sequence (looked up) with D206E, A212Y
The assay is described as follows: SPR; multi-cycle, equilibrium steady state affinity 1:1 binding model; biotinylated ADO or variant immobilised on a Biotin CAP chip (~2500-3000 RU), peptide injected; 4 °C; 20 mM HEPES pH 7.5, 500 mM NaCl, 10 mM DTT, 0.1% (v/v) tween-20; 50 μL/minute. In outline: (§1)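 Biotinylated full-length human ADO (wild type or engineered forms) was made in E. coli with a His tag, then purified by nickel affinity and gel filtration. It was captured on a Biotin CAP chip at about 2500–3000 RU in a Biacore T200, and peptides were flowed over it. The run was at 4 °C in HEPES pH 7.5 buffer with 500 mM NaCl, DTT and tween-20, at 50 μL/minute. Kd came from a 1:1 steady-state fit of multi-cycle equilibrium responses.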
On the technique in general: Surface plasmon resonance follows binding to a sensor surface in real time, without labels.

Assay [5] deals with T5, ADO-F256A, biotinylated (pQE80L-Navi-ADO) (human, UniProt Q96SZ5 1-270, F256A, biotin on the Avi tag).
T5 construct: Tag as in Dm1; source: E. coli Rosetta2(DE3), purified (Ni-NTA, SEC); not shown: Avi tag, N-terminal, kept; His6, N-terminal, kept
T5 sequence (looked up): T1 sequence (looked up) with A212Y, F256A
The assay is described as above. A digest of the protocol: as §1

B1: IL32(2-15), synthetic peptide corresponding to the methionine excised N-terminus of IL32, residues 2-15 (peptide, UniProt P24001 2-15, looked up)
peptide: CFPKVLSDDMKKLK
notes: interleukin 32 (IL32), residues 2-15 (N-terminal Cys exposed); also called 14-mer IL32; source: synthetic peptide
B1: the Kd is 34 µM and 24.7 µM in assay [1]; 37.9 µM and 35 µM and 37.6 µM in assay [2]; 1.21 µM and 1.27 µM and 1.44 µM in assay [3].

B2: IL32_(2-15), synthetic peptide corresponding to the methionine excised N-terminus of IL32, residues 2-15 (peptide, UniProt P24001 2-15, looked up)
peptide: CFPKVLSDDMKKLK
notes: Interleukin 32 (IL32), residues 2-15, N-terminal Cys; also called IL32 peptide; source: synthetic peptide
In the case of B2, the Kd is 1.3 µM in assay [4] and 0.87 µM in assay [5].
